Experimental data as given in patent US12168063B2, “Stable, concentrated radionuclide complex solutions” (Advanced Accelerator Applications SA, priority 2018, dated 2024).

Experiments:
[1] = Stability study after storage: chemical purity (peptide purity) by RP-UV-HPLC; assay type: physicochemical
[2] = after 72 hours at 25° C.

Row | Compound | stability with respect to chemical purity ([1]; 32° C. for 12 h and 25° for 60 h) | chemical purity ([1]; after 48 hours at 32° C.) [%] | chemical purity ([1]; after 72 hours at 25° C.) [%] | radiochemical purity [2]
1 | C[C@@H](O)[C@H](NC(=O)[C@@H]1CSSC[C@H](NC(=O)[C@@H](Cc2ccccc2)NC(=O)CN2CCN(CC(=O)O)CCN(CC(=O)O)CCN(CC(=O)O)CC2)C(=O)N[C@@H](Cc2ccc(O)cc2)C(=O)N[C@H](Cc2c[nH]c3ccccc23)C(=O)N[C@@H](CCCCN)C(=O)N[C@@H]([C@@H](C)O)C(=O)N1)C(=O)O [DOTA-TATE, DOTA-d-Phe-Cys-Tyr-d-Trp-Lys-Thr-Cys-Thr (cyclo 2,7)] | such high stability was found | 100 | 100 | 
2 | hydrogen [N-{[4,7,10-tris(carboxylato-κO-methyl)-1,4,7,10-tetraazacyclododecan-1-yl-κ^4N^1,N^4,N^7,N^10]acetyl-κO}-D-phenylalanyl-L-cysteinyl-tyrosyl-D-tryptophyl-L-lysyl-L-threonyl-L-cysteinyl-L-threoninato cyclic (2→7)-disulfide(4-)](177Lu)lutetate(1-) [^177Lu-DOTA-TATE] |  |  |  | at least 95%
